US20230272035A1 (VYCELLIX, published 2023)

Molecular target: T1, CD45 (receptor-type tyrosine-protein phosphatase C, PTPRC) (Homo sapiens, UniProt P08575 26-1306)
T1 construct: In the lysis assays CD45 is the endogenous protein on human PBMCs or NK92 effector cells; also called all isoforms of CD45
T1 sequence: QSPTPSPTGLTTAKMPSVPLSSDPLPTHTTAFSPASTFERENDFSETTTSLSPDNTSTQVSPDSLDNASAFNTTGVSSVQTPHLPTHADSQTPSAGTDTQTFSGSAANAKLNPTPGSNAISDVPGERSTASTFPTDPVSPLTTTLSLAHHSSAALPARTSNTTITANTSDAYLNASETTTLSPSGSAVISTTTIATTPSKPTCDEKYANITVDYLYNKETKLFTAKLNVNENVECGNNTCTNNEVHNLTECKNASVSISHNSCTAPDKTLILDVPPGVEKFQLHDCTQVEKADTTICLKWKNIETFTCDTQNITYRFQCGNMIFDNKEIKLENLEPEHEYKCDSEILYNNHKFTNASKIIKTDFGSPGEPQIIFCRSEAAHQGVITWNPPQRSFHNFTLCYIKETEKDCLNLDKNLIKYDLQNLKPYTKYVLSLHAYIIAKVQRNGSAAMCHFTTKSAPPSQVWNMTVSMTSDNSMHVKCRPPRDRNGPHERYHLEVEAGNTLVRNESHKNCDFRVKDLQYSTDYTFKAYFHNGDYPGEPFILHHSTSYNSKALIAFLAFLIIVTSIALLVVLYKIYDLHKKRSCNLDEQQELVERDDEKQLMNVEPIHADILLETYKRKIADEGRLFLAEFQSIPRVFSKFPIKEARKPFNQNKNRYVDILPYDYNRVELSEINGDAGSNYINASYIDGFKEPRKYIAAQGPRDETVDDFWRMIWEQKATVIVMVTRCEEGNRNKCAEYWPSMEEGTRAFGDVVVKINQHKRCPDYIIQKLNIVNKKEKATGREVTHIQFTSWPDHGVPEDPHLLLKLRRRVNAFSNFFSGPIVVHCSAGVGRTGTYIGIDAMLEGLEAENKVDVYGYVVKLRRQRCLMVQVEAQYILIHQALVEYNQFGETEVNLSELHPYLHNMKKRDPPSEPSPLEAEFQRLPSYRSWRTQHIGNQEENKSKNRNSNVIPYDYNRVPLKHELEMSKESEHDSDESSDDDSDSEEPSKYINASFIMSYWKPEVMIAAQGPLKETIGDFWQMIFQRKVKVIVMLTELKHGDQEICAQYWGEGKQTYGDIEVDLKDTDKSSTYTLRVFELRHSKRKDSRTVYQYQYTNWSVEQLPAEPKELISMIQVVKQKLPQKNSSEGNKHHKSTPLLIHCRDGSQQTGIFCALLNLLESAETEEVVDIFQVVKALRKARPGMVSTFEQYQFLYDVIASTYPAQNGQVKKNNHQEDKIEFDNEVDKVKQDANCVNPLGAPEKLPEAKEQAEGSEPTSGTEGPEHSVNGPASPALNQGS
Test: not described; same paragraph: immunoprecipitation studies reveal a physical interaction

B1: a-CD45-sc (membrane-bound anti-CD45 single chain antibody with CD8a/CD28 stalk and CD34 transmembrane region) (scFv)
scFv: QVQLVESGGGLVQPGGSLKLSCAASGFDFSRYWMSWVRQAPGKGLEWIGEINPTSSTINFTPSLKDKVFISRDNAKNTLYLQMSKVRSEDTALYYCARGNYYRYGDAMDYWGQGTSVTVSKISGGGGSGGGGSGGGGSGGGGSGGGGSSDIVLTQSPASLAVSLGQRATISCRASKSVSTSGYSYLHWYQQKPGQPPKLLIYLASNLESGVPARFSGSGSGTDFTLNIHPVEEEDAATYYCQHSRELPFTFGSGTKLEIKSSGSGSPTTTPAPRPPTPAPTIASQPLSLRPEACRPAAGGAVHTRGLDFAPRKIEVMYPPPYLDNEKSNGTIIHVKGKHLCPSPLFPGPSKPTLIALVTSGALLAVLGITGYFL
notes: The molecule was expressed on the surface of K562 target cells; also called anti-CD45-sc; ai-CD45-sc
B1: binds.

B2: HCMV (Merlin strain; HHV5) protein UL11 (other)
chain: CIPVVGKIGTNVTLNAVDVLPPRDQVRWSYGPGGQGYMLCIFTGTSTTTFNNTRFNFSCLSNYSLLLINVTTQYSTTYRTMTSLDHWLHQRHNHGSRWTLDTCYNLTVNENGTFPTTTTKKPTTTTRTTTTTTQRTTTTRTTTTAKKTTISTTHHKHPSPKKSTTPNSHVEHHVGFEATAAETPLQPSPQHQHLATHALWVLAVVIVIIIIIIFYFRIPQKLWLLWQHDKHGIVLIPQTDL
notes: also called ULll
B2: binds.
